Values of other authors, collected in article PMC8805269.
pKd: −log10 of the molar value.

Molecular target: Swi6 CSD (Schizosaccharomyces pombe) (UniProt P40381)

- pKd: > 7.77
Substance: Swi6 CSD (from UniProt P40381)
